Experimental data as given in the supplement of paper PMC12636428.

System: Saccharomyces cerevisiae
Assay: transcriptional activation domain activity (GFP:mCherry ratio, weighted mean of sorted bins, harmonized to initial dataset scale) (arbitrary fluorescence ratio units); higher = stronger transcriptional activation
Settings: beta-estradiol 1 µM; induction time 4 h
How it was run: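 For this assay, yeast diploids with a GFP reporter carried barcoded protein tiles at URA3, each fused to an estradiol-inducible synthetic transcription factor. Induction was a 1:5 dilution into SC with 1 uM beta-estradiol for 4 hours at 30 °C, followed by sorting into 8 bins by GFP:mCherry ratio and barcode sequencing. Tiles under 50 reads were dropped, and activation activity was calculated as the read-weighted mean of bin median fluorescence, averaged across barcodes and linearly mapped onto the initial dataset scale.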

Row | Sequence | transcriptional activation domain activity
1 | ILVMWTVISCPVFSFPDRGHGSMLFFLFKLCLVMLLTYLVTMLWFLCVFSIVV | 52100
2 | ILVYLSSVKLRNYRGNTYSFIHLTPWVPLDLLKYACDFLGLLSGFNLLPLYFQ | 56300
3 | IMCQWVKNLKERLLKMPPALRICLADHVLKFVIPKLHILGHLKLCQELFSLLY | 47100
4 | IMGLVFRRARRRTVSLVTKYLITETEVVITYIPAVAVAIFPQLNWIYWMIFYP | 65800
5 | IMGNLVVLLWHTKVDNIESYLADLSRCIEDFLNVTAQCAPSILILKPKFHFLL | 56300
6 | IMGRYCAKAVWLDTRQHLLNKLSQIGFNWDVLKSLVKSWWHYYSLAVMLWLYQ | 69200
7 | IMLVLNWLAVHGLFLVKKKSEKSVYHALHKMPTPPFSDSLRQQCRDRLLACLA | 36700
8 | IMMFPMFIALSILYAMVYLGVLFSFFSVLFFFSVVYFLEPGGLCILDVFFYYY | 68000
9 | IMTKSEQQIVKCVKLMLSSSEKRYRLFNDSFSVIIFRIVDMNYGLRLLNLIID | 56100
10 | IMTLFYSAQRHLNKLILATKIAAGVWPPPDAMAQLRFQIGQLLIFMQTFVSQC | 67400
11 | IMYIICLTIAPSFLCGVLYVSLSRFIAALGHQYSLVPPWLISWVFIFGDFLSL | 62600
12 | IMYSVIVSLLLFLFLLVLLRRYLVSLYYFTSLFLSPRLCARIAIVFRICLLYI | 50300
13 | IMYTSHHDPKHCFEETRDGTLKVHVIGDWLPRGIFGKMYILFAILRQLVLVLW | 74900
14 | INCQVVYQLQGITGHMALNFASINFAIRTIYIWMHNVYVTSTLSLLILCQWVI | 54700
15 | INGLFMLLLVYYLTLYHLARCLGYSVLSYLAHFIRFDGFCPLLHTCAGLLFSS | 42300
16 | INILIFICLPYRNFQFFLYLVPMSCSLTPCHWQVIASKLEILLLSTYWITFVA | 61200
17 | INKGTNRFSETVLPPQMAAEQSWSDSNMELEICLDYLHNELEVIKKRQEDFEC | 60200
18 | INPFFGFLPFFFFFLPHLLLHYLALFFYYYFWFVFFSVPYSCPLVFYLLVFFL | 55200
19 | INSTIHNLCELAILPDLCGICCFSMRFFVYLDLIGTLILPSTVVYLVWLIIQV | 82700
20 | INSTIHNLLEVVLLPDLCGFCCFSMRFVVLLDLIGTLTLPVSAVYLVYLIYVI | 59000
21 | INSTVHNLCELVLLPELFGFCCFSMRFFVFIDLLGTLILPATVVYLLYLIIVV | 26100

Row | Sequence | transcriptional activation domain activity
22 | INSTVHNLCELVLLPELFGFCCFSMRFFVFIDLVGTLILPATVVYLFYLIIVV | 39400
23 | INVTSPPPIDYLSIGDFSFFSFETTDLPFSIDSGVLLPSLSSFEQPIFDFNFI | 143000
24 | IPENELLDEDTMNFISSLKNDLSNISNSLPFEYPHEIAEAIRSDFSNEDIYDN | 98200
25 | IPGPILLCSLTALSCLTLFTLLVSIYWSVSSVCHLIFLTILWILRCLVTLLRF | 34600
26 | IPHGKVGDIFLLFEFSYPIISTIIILFYYYYFYYLLSLHILYFFYYSRCWLLV | 42300
27 | IPIKYNTAIKRHQHSTELPSSVKCGFCNDNTTCVCKELETDHRKSDDGVATEQ | 39200
28 | IPIQLGCMHLHSPWMTYALLYQLIYPMMMIYNLVNCIYFGTGTQMLWWMVSIV | 73000
29 | IPLKKLCHAAIADLFRFLVLSKKDSKDIVARQRLQVAAWMGLWPPKIQRNKWV | 45600
30 | IPPLVLFFHFHFPSCGGCAFCRCLFLCLLLLALSLPLIPVSLIMCYPCHMYLL | 41100
31 | IPSHQFAFGRFMALSSTLGCKFFFSSFNSFFYIFFITLFFSLLLLPFFKNLFF | 39300
32 | IPSLLSLSFYCLGFLSFAISSFSFPSFPLYHYPLCLGFLYSAGWLVGGYLWLY | 77000
33 | IPSSQSRDIANDYDRGSTDNNLVTTTSTSSIFHDEDLTFFDRIPLNSNNNYYF | 102000
34 | IPTPFASHAFNPFDGFLQSLPYHLYAYFIPMHKYLYLSMFVFVNFWTVMIHDG | 50600
35 | IPTPFASHAFNPVDGFLQSLPYHLYAYFIPMHKYLYLSMFVFVNFWTVMIHDG | 58500
36 | IPYVAQEYGFDYELVTYKWPSWLRAQKEKQRVIWAYKILFLDVLFPLDLKKVI | 62100
37 | IQAAGLWQCRYSSYGIECVRYVFFFTMFLFLLRSGWYLSSAFFLGLLWHQLSF | 39600
38 | IQAEGLYDCRYSSYGIELLRYAFYFGMFLFLLRSGWYITSSVFLGTLWHQLSF | 21100
39 | IQAEGLYQCRYRSYGIECIRYIFFFAMFGFLLKSEWYLSSAFFLGCLWHQLAF | 25300
40 | IQAYLVNFLSSACLMNFWVTLTFLLGGEPYHYSTYVLLVGWMFIYLILLFGLI | 37700
41 | IQDLVFSIIGWFCFGGYTGYNIIQYVNMFGFAEWRRTLPVLYQLMYFNVWMSL | 62900
42 | IQEDNEEGERRRRRRKGKAGEETEGEKKEKKRKKNGATKSGKRGKMERNGKLK | 28400

Row | Sequence | transcriptional activation domain activity
43 | IQEEVKAKKKRKSRKGAKEEGEASPAESSESDGEQEKPKKKASRKKKRPKVEG | 27600
44 | IQFSLIPLSILSFCINHFGLGCDVWTVSFAHITDVLHITYWVEILYTLCLYFV | 40700
45 | IQNEDKFAESKNLSLDEFLKIFNGIYYERLRYDFNVVVIILLLTLFNHCKDFY | 52700
46 | IQSGDEGKDRKGREKVEDRSKRSRRRSRSRSKDRSRGKRRRDDHEGTKGGGQA | 41100
47 | IQTYEIVGLTSCSLNVVLLPFAFYLVTLCFKTSERSPLLSMLCRLFFLPLTCG | 45100
48 | IQVRLTAFDCLFVLKGLTESTLTQYFLSVIRDDPCVYVSHYVARAMLAWLGLA | 55600
49 | IRCAKGFKSTDETKIFKTGQGGMKGNMYVTLSWNRWGKLLWATRIITRDFNPV | 46000
50 | IRDRFNHGPCKVYILFMNCTYLPMIPGLFRIIEILRYYLRLRWLRCCSAAGPD | 60300
51 | IRFTLPTLVFAAVQLARRFKLLEAGGWSEWARKMCSLYKFVHQIIGLLYTRVE | 62600
52 | IRGKTLPKYFPRFHMWGHIDADIQLMSKGLITPVCIEMVYGMHPFVVYKLFMF | 62100
53 | IRGLLILRYQRGYKDLNHCEPQVIFYDRLCGFLVLGWFLHYFPFFLMSRQLFL | 88200
54 | IRGMCPEKPQIREIVYLLRGLIVNRILLMTLKKRWNVQYGLHSTRDPIAVPFH | 53200
55 | IRGNMSGSEFHWTCKSLGLCGILVRCLAWYCISKMYVLPTCYRRMYCCEVYKD | 49700
56 | IRIADMHANFFYKNINYTLSLFIFQIWCHFNSTYLFDYTLLMLFNLLFTSLPV | 37100
57 | IRLELGIIEDFFGLTLCMSKYLLYHYVISLKLSACFFAVHGYAPNGLDYPWVL | 55000
58 | IRLLFVWIVCTRIVLASRSACGRCYRSYLAMRSRSGWRWVSRRTAAVLVLRWC | 61500
59 | IRLLISKHWLPVLFSFRGFMELTTTVPFLLSTYIPNGRYLYVPYFIRSWVLLL | 72800
60 | IRLMPFYSSPNVDVAEENLRCYENTAVFLLSNFQYLIVALVYCDGEPYRENIS | 41000
61 | IRLVSSEMIRYLKKHDFKDITYYTLYISLMGFSKRYYRQGILMLKCVDIEVIY | 74500
62 | IRNHSLPTNLQVKDKIEDLNEIKFFNDFEKLEFFNKYAKVNTNNDVNENNDLW | 46800
63 | IRPSTPAATRSTSPPRPRPPRASRSPRPRRTRGRRSSKLRRKATSPPPATAPS | 38200

Row | Sequence | transcriptional activation domain activity
64 | IRQLFGNYVLLYFFPWGFGCGFLPVLFPVQTCRIYHYLLFYFFFLSPFFFSIP | 36700
65 | IRRHFNRKYHQCLLVVIVLGVYLAIGLNWGRFYLVCWVLLHFCIVILGPLYFL | 53400
66 | IRSSSHLFPISPFYFVFLFWSSFSVFTMLLLPPTIPRSNQFRAFSSFLWFSWI | 67000
67 | IRSWGDAVLAHSPLFDHVDGDAACPCSRCCSGVIAWSFWERVIRIVPMHLFSA | 64500
68 | IRTLRRSAREVLTVYWVLHGILPFPSIHSLDPYILSRRWSLCLNCLFLYALYF | 49700
69 | IRWHIREHQLRVLAKFCADRIGDPYVYCPCIIAKGLVLALIRIVSALLEKPAI | 56200
70 | IRYLDHTQLLGEPLLKRTFMGGHIFIPTLIDTALCQSYFSSHILDILRHLTFS | 63300
71 | IRYWLLTFFVMDFLPNRELRLLLASWLNTLVNDPILKKHQDGLSIVRKLIKVA | 51600
72 | IRYWTWMVWVIIIGSTLAFHVWIAIYSQFDVFTFESELFYLYTTLNFWTCIVF | 57100
73 | ISAQEFSRNFTEDVDESLQSEIDLMNYDNEALNQLMAIDLDKLLGIFPNLSNF | 140000
74 | ISCAVSACIVCVINCAVTVWASVNNKANKGVLFEGDCEKVRQMNTGLHLLINL | 66400
75 | ISCLGLTGWAGRFGSLYYIISMGGCSLSLGAMIAHVELKDSANCWWWFRYGFW | 77400
76 | ISGQEHKDMCRILLGLIIDLPLPSGQVTSRIIRLVHALLDFLYLAQLPSQTTN | 61400
77 | ISIAQIEIAILFHISFFIFYFVSISFLLLYFICCILCTYVLLIYSLSFLYLVV | 45800
78 | ISICLPELRLFMYCKFLYWLEVMSLLNDLEHVKQMLKDVLGCGKMQLKVFKFT | 62000
79 | ISKTIAVLELACDVLHHNPGVFIISVLLLVIFIAFTAIWMVLFNRLWLIGHLN | 56000
80 | ISLCLLHCVIMVFGLGLQLLVPSIYTRIEHVSYESTWNFAYYCAGWFMLKVCI | 38100
81 | ISLGDFIVTLNYLFCYFLMQAPSLKLKPTSLFFFFLCIWLDFVLCLLILLRVA | 46400
82 | ISLLTLSFFYCFLGVFLPGFSLSLLPFPLFCFFLAFFLPCFSLSLLPFYPFFF | 56500
83 | ISLLVLGCWIPFIILMEGYLQSLTFESFPYPGLYCFTSQGSHIIYLCWVLIAI | 60200
